Laboratory results reported in publication PMC6307885, “Spatiotemporal control of axillary meristem formation by interacting transcriptional regulators” (Development (Cambridge, England), 2018).

Legend:
[1] = biological target: T1, BD-REV (full-length REV fused to the binding domain of GAL4) (Arabidopsis thaliana, UniProt Q9SE43 1-842); assay: cell-based or functional assay
T1 sequence (looked up): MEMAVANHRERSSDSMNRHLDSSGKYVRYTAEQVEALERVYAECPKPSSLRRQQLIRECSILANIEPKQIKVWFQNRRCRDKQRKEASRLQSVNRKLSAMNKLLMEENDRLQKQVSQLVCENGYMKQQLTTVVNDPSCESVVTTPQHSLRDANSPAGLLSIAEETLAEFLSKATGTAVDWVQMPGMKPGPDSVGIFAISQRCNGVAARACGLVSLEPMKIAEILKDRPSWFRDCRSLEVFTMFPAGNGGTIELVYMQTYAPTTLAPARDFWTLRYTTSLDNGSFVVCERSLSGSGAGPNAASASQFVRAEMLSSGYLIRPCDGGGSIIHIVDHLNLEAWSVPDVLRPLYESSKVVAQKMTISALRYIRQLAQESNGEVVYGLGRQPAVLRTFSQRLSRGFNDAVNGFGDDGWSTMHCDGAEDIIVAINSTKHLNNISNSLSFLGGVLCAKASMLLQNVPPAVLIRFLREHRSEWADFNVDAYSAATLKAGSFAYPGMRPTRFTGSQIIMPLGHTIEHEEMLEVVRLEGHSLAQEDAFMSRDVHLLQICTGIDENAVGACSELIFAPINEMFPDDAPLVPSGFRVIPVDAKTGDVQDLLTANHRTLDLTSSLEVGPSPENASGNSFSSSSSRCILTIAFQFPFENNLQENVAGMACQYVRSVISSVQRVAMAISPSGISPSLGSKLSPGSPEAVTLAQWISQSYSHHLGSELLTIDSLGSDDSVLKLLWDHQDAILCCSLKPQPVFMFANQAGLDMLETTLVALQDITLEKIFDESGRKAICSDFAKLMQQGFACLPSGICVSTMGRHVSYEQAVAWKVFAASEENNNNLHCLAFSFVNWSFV

[2] = biological target: T2, DRN-GFP (DORNRÖSCHEN fused to GFP, from pDRN::DRN-GFP plants) (Arabidopsis thaliana, UniProt Q9SAD4 1-328); assay: co-IP; anti-GFP on Protein A sepharose beads, blot probed with anti-MYC; extracts of young (younger than P10) and mature (older than P10) leaf axil-enriched tissues of pDRN::DRN-GFP p35S::REV-MYC plants, equal amounts of DRN-GFP; 20 mM HEPES pH 7.5, 40 mM KCl, 1 mM EDTA, 1% Triton X-100; conditions: partners not purified
T2 construct: DORNRÖSCHEN (DRN/ESR1), AP2 family transcription factor, Arabidopsis thaliana, At1g12980; Cole et al., 2009; also called ESR1; ENHANCER OF SHOOT …ON 1; source: Arabidopsis pDRN::DRN-GFP p35S::REV-MYC plants, extract of leaf axil-enriched shoot tissues
T2 sequence (Q9SAD4 whole entry, the tested form may be a part): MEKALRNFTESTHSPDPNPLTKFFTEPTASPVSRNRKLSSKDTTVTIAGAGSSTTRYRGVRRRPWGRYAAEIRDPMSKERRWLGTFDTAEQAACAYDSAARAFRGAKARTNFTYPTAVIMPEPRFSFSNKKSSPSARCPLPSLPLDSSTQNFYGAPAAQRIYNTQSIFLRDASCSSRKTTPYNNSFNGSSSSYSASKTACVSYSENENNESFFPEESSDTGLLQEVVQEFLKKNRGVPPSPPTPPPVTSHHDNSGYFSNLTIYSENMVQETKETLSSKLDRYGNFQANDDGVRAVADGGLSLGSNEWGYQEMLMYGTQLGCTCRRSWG

B1: AD-DRN (full-length DRN fused to the activation domain of GAL4) (natural protein)
chain: not shown
pSTM::Luc reporter (LUC/GUS) in Arabidopsis protoplasts; co-transformation of p35S::DRN and p35S::REV against transformation with one alone [1]: ~2.5 fold

B2: REV-MYC (REVOLUTA with MYC tag, from p35S::REV-MYC plants) (natural protein, Arabidopsis thaliana, UniProt Q9SE43 1-842, looked up)
chain: MEMAVANHRERSSDSMNRHLDSSGKYVRYTAEQVEALERVYAECPKPSSLRRQQLIRECSILANIEPKQIKVWFQNRRCRDKQRKEASRLQSVNRKLSAMNKLLMEENDRLQKQVSQLVCENGYMKQQLTTVVNDPSCESVVTTPQHSLRDANSPAGLLSIAEETLAEFLSKATGTAVDWVQMPGMKPGPDSVGIFAISQRCNGVAARACGLVSLEPMKIAEILKDRPSWFRDCRSLEVFTMFPAGNGGTIELVYMQTYAPTTLAPARDFWTLRYTTSLDNGSFVVCERSLSGSGAGPNAASASQFVRAEMLSSGYLIRPCDGGGSIIHIVDHLNLEAWSVPDVLRPLYESSKVVAQKMTISALRYIRQLAQESNGEVVYGLGRQPAVLRTFSQRLSRGFNDAVNGFGDDGWSTMHCDGAEDIIVAINSTKHLNNISNSLSFLGGVLCAKASMLLQNVPPAVLIRFLREHRSEWADFNVDAYSAATLKAGSFAYPGMRPTRFTGSQIIMPLGHTIEHEEMLEVVRLEGHSLAQEDAFMSRDVHLLQICTGIDENAVGACSELIFAPINEMFPDDAPLVPSGFRVIPVDAKTGDVQDLLTANHRTLDLTSSLEVGPSPENASGNSFSSSSSRCILTIAFQFPFENNLQENVAGMACQYVRSVISSVQRVAMAISPSGISPSLGSKLSPGSPEAVTLAQWISQSYSHHLGSELLTIDSLGSDDSVLKLLWDHQDAILCCSLKPQPVFMFANQAGLDMLETTLVALQDITLEKIFDESGRKAICSDFAKLMQQGFACLPSGICVSTMGRHVSYEQAVAWKVFAASEENNNNLHCLAFSFVNWSFV
notes: REVOLUTA (REV), class III homeodomain-leucine zipper transcription factor, Arabidopsis thaliana, At5g60690; source: Arabidopsis pDRN::DRN-GFP p35S::REV-MYC plants, extract of leaf axil-enriched shoot tissues
fold stronger co-precipitated REV-MYC band, old against young leaf axil-enriched tissues [2]: ~3 fold

B3: AD-DRNL (full-length DRNL fused to the activation domain of GAL4) (natural protein)
chain: not shown
pSTM::Luc reporter (LUC/GUS) in Arabidopsis protoplasts; co-transformation of p35S::DRNL and p35S::REV against transformation with one alone [1]: ~2.5 fold
